In paper doi:10.1101/2022.07.22.501097v1 (biorxiv, 2022):
Values belong to the molecule of their own block, whether it stands above or below them.

Assays:
BglC = biological target: T1, BglC (Thermobifida fusca, UniProt Q9LAV5); experiment: 4-nitrophenol release at […] nm, continuous plate assay, non-linear regression; assay type: biochemical
T1 sequence (Q9LAV5 1-484): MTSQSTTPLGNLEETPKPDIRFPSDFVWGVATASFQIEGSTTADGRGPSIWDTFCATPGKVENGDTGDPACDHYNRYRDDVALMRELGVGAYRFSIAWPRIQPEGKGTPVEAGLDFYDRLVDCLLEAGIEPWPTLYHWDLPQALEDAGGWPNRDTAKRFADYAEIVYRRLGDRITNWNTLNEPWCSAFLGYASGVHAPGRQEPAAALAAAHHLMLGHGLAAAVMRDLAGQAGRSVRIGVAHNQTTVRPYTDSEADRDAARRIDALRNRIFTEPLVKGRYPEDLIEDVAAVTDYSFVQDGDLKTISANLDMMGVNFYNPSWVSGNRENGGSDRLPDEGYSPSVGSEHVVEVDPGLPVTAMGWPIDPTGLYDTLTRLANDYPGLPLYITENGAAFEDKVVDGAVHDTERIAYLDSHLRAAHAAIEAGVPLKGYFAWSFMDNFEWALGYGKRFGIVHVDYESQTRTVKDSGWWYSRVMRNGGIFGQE

purified protein = substrate: O=[N+]([O-])c1ccc(O[C@@H]2O[C@H](CO)[C@@H](O)[C@H](O)[C@H]2O)cc1; experiment: purified protein; details: 100 mM sodium phosphate pH 7.0, 37 °C, 2.63 nM enzyme

Ki (BglC): 6.63 ± 1.3 µM
Molecule: O=C1O[C@H](CO)[C@@H](O)[C@H](O)[C@H]1O [D-glucono-δ-lactone]

B1: BglC (Thermobifida fusca) (protein)
chain: T1 sequence (Q9LAV5 1-484)
Km (purified protein): 560 ± 10 µM | kcat (purified protein): 48.68 s⁻¹
